What was measured:
[1] = molecular target: T1, Recombinant His-tagged HP1γ (CSD) (human, UniProt Q13185 110-183); test: pull-down; His-tagged HP1γ forms incubated with GST-KDM2A fragments in 300 mM NaCl, 50 mM Na-phosphate pH 7.0, 4 °C 1 h; collected on TALON resin (1% NP40 washes); SDS-PAGE; details: both partners purified
T1 construct: HP1γ, human, chromoshadow domain construct, amino acids 110-183; Limits 110-183 are those printed for the HP1γ (CSD) cDNA; the His-tag plasmids are described only as 'His-tag HP1γ and its mutants'; also called CSD of HP1γ; His-HP1γ mutant; source: E. coli DH5α (pCold I), isolated with TALON His-tag resin, dialysed

[2] = molecular target: T2, Recombinant His-tagged HP1γ (human, UniProt Q13185 1-183); test: as above; details: both partners purified
T2 construct: HP1γ, human; the cDNA used encodes 183 amino acids; pCold I vector; also called His-HP1γ; His-tag HP1γ; source: E. coli DH5α (pCold I), isolated with TALON His-tag resin, dialysed
T2 sequence (Q13185 whole entry): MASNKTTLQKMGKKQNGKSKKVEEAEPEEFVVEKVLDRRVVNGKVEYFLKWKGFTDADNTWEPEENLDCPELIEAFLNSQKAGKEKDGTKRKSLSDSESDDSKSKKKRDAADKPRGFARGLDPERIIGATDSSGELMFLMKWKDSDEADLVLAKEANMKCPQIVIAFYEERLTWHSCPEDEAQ

T1 sequence (Q13185 110-183): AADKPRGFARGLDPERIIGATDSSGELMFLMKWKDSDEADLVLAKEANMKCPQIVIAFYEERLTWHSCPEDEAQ

B1: recombinant KDM2A fragment (amino acids 785–817) fused with GST (domain or fragment, UniProt Q9Y2K7 785-817, looked up)
chain: ELSEVEKAKIRGSYLTVTLQRPTKELHGTSIVP
notes: also called GST-KDM2A fragment; source: E. coli DH5α (pGEX-3X), isolated on glutathione-Sepharose, dialysed
Q: What does the source list for B1?
A: binding result [1]: binds; binding result [2]: binds
